Data set [1] concerns MPPT5 (proaerolysin with the MMP2 site HPVGLLAR joined by a GG linker to the uPA site SGRSAQ in the).
The test system of data set [2] is MPPT4 (proaerolysin with the activation sequence KVRRAR changed to the MMP2 site HPVGLLAR, 6xHis tag).
For data set [3], the system named is wild-type proaerolysin from Aeromonas hydrophila.
Data set [4] concerns MPPT1 (proaerolysin with the furin site KVRRAR replaced by the uPA site SGRSAQ, and a His tag).

active MMP2 protease (EMD/Calbiochem) returned a Hemolytic titer after MMP2 digestion (hemolytic titer (wells with lysed cells)) in data set [1] of 6.5. Also, in data set [2], the “digestion with MMP2 (Western blot, 48 hour incubation samples)” value is “complete digestion for MPPT4” and the “digestion with MMP2, 24 hours (silver stained SDS-PAGE)” value was “complete digestion for MPPT4 for all concentrations shown”. Further, in data set [3], the Hemolytic titer after MMP2 digestion (hemolytic titer (wells with lysed cells)) was determined as 0; the “digestion with MMP2 (Western blot, 48 hour incubation samples)” value is given as “less than 50% digestion for PA”; the “digestion with MMP2, 2 hours (silver stained SDS-PAGE)” value is reported as “PA is not measurably affected by MMP2”; the “digestion with MMP2, 24 hours (silver stained SDS-PAGE)” value was “a small amount of digestion for PA”.

Substance “urokinase-type plasminogen activator (uPA)” had a Hemolytic titer after uPA digestion (hemolytic titer (wells with lysed cells)) in data set [1] of 7. Also, in data set [3], the Hemolytic titer after uPA digestion (hemolytic titer (wells with lysed cells)) amounted to 5; the Hemolytic titer, 0.016 mg/mL uPA (hemolytic titer (wells with lysed cells)) stood at 0; the Hemolytic titer, 0.04 mg/mL uPA (hemolytic titer (wells with lysed cells)) was determined as 2.5; the Hemolytic titer, 0.08 mg/mL uPA (hemolytic titer (wells with lysed cells)) came out at 6. Further, in data set [3], the “activation by uPA digestion (Coomassie stained SDS-PAGE)” value was “No activated aerolysin band, and only a very faint high molecular weight oligomer band, was seen for the PA sample digested with 1 µg of uPA”; the “conversion to aerolysin by 0.016 mg/mL uPA (SDS-PAGE)” value is on record as “No PA was converted to aerolysin when treated with 0.016 mg/mL uPA under these conditions”; the “digestion with uPA, 2 hours (silver stained SDS-PAGE)” value was “it is somewhat sensitive to uPA, though not to the degree seen for MPPT5”; the “digestion with uPA, 120 minutes (Coomassie stained SDS-PAGE)” value was “whereas much less PA was activated”. For the same substance, in data set [4], the Hemolytic titer, 0.016 mg/mL uPA (hemolytic titer (wells with lysed cells)) stood at 6; the Hemolytic titer, 0.04 mg/mL uPA (hemolytic titer (wells with lysed cells)) is 7.5; the Hemolytic titer, 0.08 mg/mL uPA (hemolytic titer (wells with lysed cells)) came to 7.5; the “activation by uPA digestion (Coomassie stained SDS-PAGE)” value is “the MPPT1 sample digested with 1 µg of uPA showed an activated aerolysin band (˜48 kDa; lowest band), and a high molecular weight oligomer band”. In data set [4], the “conversion to aerolysin by 0.016 mg/mL uPA (SDS-PAGE)” value is “MPPT1 was nearly 50% converted” and the “digestion with uPA, 120 minutes (Coomassie stained SDS-PAGE)” value is on record as “After 120 minutes, the MPPT1 is almost completely activated by 0.04 mg/mL uPA”.

Values taken from US20090016988.
